Test: soluble fraction after stress (log2 fold change); higher = more stays soluble; pooled small domains, quantitative proteomics
Conditions: stress: 75 degC
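Note: 20 min heating vs room temperature control held 20 min.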

Point of comparison: “HMAAVAPPVLERIASDLATRFAGTLSPETVDRYVRESYHLLAERAGITRYLPSLTARFAGDRLDA”, “soluble fraction (log2)” value 0.0295. Against it:
- HMAAAQILRAAVLRVPAEETMRFVTETPELRRYLGASLGPTAAIVRPGQEQNLAAALQSHGILVEFDE — within 0.2 log units, -0.0423
- HMAADLIGLEARVTLPLTEDQRGFIETSVRGSLVRRAALSASGRLDRGQRVVILRSEGTTLIVDAL — lower, -3.37
- HMAADRRKAERPLIDGQAVMDRFEVGPGPMVGKALKFLLALKRAEPDLDLAGTEERLDAWWNEQL — within 0.2 log units, 0.0606
- HMAAEFERKNGIVYFFHSSEKPHLNYPHVHARYGEDTISISLRDFTVIGSFSSKKKQKEAVEYVKNK — lower, -0.829
- HMAAEPDQQLIKPASDPVLRTMKIEELMKMSEQVKIQMSKAAKNFDYLEAARLRDEHFALENLIKLRS — within 0.2 log units, -0.106
- HMAAGELSGEALIALIERHPMALSALATTFGHSESDLRAFVEPLARQGRLRLFESQGTLFVGGIG — lower, -0.5
- HMAAHHIILEEREQLSVSGVEEVESFDENTIVMLTNRGTLIVRGEELHIEKLSLDGGDLRVEGSIDSLTYE — lower, -0.465
- HMAAHWANFLEALRAGRARRVLVARGVEGWLLKELERLGAPYTLVPRIELDTLLRTTHHQGIAAEVE — lower, -1.46
- HMAAPELLTVRERQVAALISDGLSNQQIAHRLHLEVTTVKAHIGSIFNRLDMNNRVQIAIWAHDRQLVFS — within 0.2 log units, -0.161
- HMAAQDIILKRNAEQIEAIVKEITDTDVKYRKFTNTEGVTYSIRRSEVFSITYENGTMDLFA — higher, 0.248
- HMAAQDLIVKTDASQVEARVLEISPDAVRYKRFSNPDGPTYVLPVAEIRYIRYANGEVEYYA — lower, -0.624
- HMAAQLAHVPAVTGRPLAEAQRILADNRLNAQVTQQPVAEPKLDGVVIAQKITEGTRTMRGATVPLIVGKY — within 0.2 log units, -0.00421
- HMAASGTVNSGGDPLRVRADPNTSSQILTKLSDGTQVEVLEQAENGWYKIAHEGISGFVSGEYLVVH — within 0.2 log units, 0.0197
- HMAAVEDLPVKSVNGKKYHYYTVQPKESLYSLSHKLGISRQEIIKYNPGVEDGLKAYEDLLFPYTPK — within 0.2 log units, 0.192
- HMAAVSTDEEFAALGIPAEWIPVLKSNGFQTVESLKKVAPGALFNQLGGLRKKNKLEIAMPSLDQVKAWLA — higher, 0.333
- HMADDFISTLFSEGIIIDTEVKQFAERQGSPLQFVRHIASNLPEPRDIITMGEVRSVMREGA — within 0.2 log units, -0.00121
- HMADEEEIMVPQVVGKTYDEAKSELENAGFKVEKNEKTSDKASGTVISQSINGGAKKGTSVTLTVSKGN — within 0.2 log units, 0.0356
- HMADFYEVLGVERNASSDQIKRAYRKLARELHPDVNLDPVAQNRFKEVTEAYEVLSDPNKRSNFDRG — within 0.2 log units, 0.0366
- HMADGEWAEMQRQLTAAGLLVVGRAAQERIQRLSDISPLIEAAQRSNVVMLSERTVDEVLTLVPT — lower, -0.225
- HMADGTSIYAEREVLYVTSPTANTAKVYNVSGALVRTMTLSAGQTVRTALPAGFYVVALGNGNTHKVIV — lower, -2.4
- HMADKSLLELPGLDGDKVSALVTAGVRNVNDLADLATDELVEKTGFDEKTAADLIIAARAVVY — higher, 0.43
- HMADLNQTDIDSITKSVGGVEQYKSLMDWAGKTLSQDAIDSFDDLVNTGNKGSIQLAVNGLVAQYQNDN — within 0.2 log units, 0.167
- HMADMKIHLRPYAHDTNRWHVDIRLMHPTAATEIRKRLVAPAGLSEAQARAWGERQVPTILGKALGVI — lower, -1.65
- HMADNILPAQTDAIKALATENGFSNESLEKYLIENYGTTIYGLSRNQGIQIINLFQSENPPKP — higher, 0.277
- HMADQIIEGILGKEGGYVNNPNDKGGPTRWGITQTTARAYGYSGDMKALPRDTAKAIYLSQYWT — within 0.2 log units, -0.0711
- HMADTPQAYIRQMVQEAGADGIMLSTITDRLRARFKDFKVRDLGYAQMRQYMASTGTYDLEKSGRNFRVHL — lower, -1.06
- HMADTSLDHLGVLVRHASDVDAWAEFFENRGVTLASQPRTHRDGARSFYVDDPDGNRVQVIYHPPI — lower, -0.779
- HMADWTETELAALRRAYASGTTRVSYDGKSVDYGSAEDLLSRIRTLQGAASDVAADAVAAVDA — within 0.2 log units, -0.0473
- HMADYSMDDNAWNAKKADIDEWFEANPDFSANKAITDGLFSIGDSQVEMRKRYWASIAGVFAGLPNSPIG — within 0.2 log units, 0.0121
- HMAEANTEADFVAIGVRAELLPILQKLGVHTIEQLKGIKATKLFNDIPGMRKKLKLDAVQNPTLQEIEGWL — within 0.2 log units, -0.146
- HMAEAPGSVELLAERLRPWWEIHGGEWGSKTKALRFLFGDQAPVAGSYWRALEAAIAQIESTT — lower, -0.692
- HMAEKNALWEEDAVYAADSSALARDGYDAIVRTDKGGKKGYLVVGTGGRERFMPLQTLVMLGYLKK — lower, -0.433
- HMAEKRTAIITTARADIRQKPEATAPLAFEAVKDVVLELTDKPADGWVRVKHRDGSTGYIRINQI — within 0.2 log units, 0.0638
- HMAELAKAKLDAAVQVALLKAGALDTDYLAYKLQGMDGVALDDKGSLTGWDTTLETLKSQYPTQFA — lower, -0.368
- HMAEPTLNERLREALSDPAKLKIAKAIKAKYPIITARDIDTFLNMHEKDIENGADPMDEFEEFFHANY — within 0.2 log units, 0.201
- HMAEPYDEDKVMEHLYIKGKDVVIAHLKHLKEHNEHVWLKKGVEWMQKNQDRLGFDMMEVIYVVHNH — lower, -0.833
- HMAEQEELDAIRPDLDGQEIMDILGIKPGREVGAARNFLLELRLDEGPLGYDEAVSRLLTWWAERT — within 0.2 log units, -0.0583
- HMAETLLWADAAQEGLNRIVAAQPILVRISAAKRLRDASEQAAKAAGVSTVEIGHVQHASESLQFGDA — within 0.2 log units, 0.0809
- HMAETLRLVGATNLNTLARARHPDDLAARNEFRRAIAQANPALFAGKSKVGSVSLPAGTVLALPPEV — within 0.2 log units, 0.0163
- HMAEVDDESIKLYDGGYQSNTTKSRLNALLSEFGYDTEHVFQKQFEWFISIFDLTEKAMRTVPFSNGMRL — within 0.2 log units, 0.0627
- HMAEVGDFTLAELIKVLFNEAGVLKAPVELRNDNTGGLQYRVGAYTDSETGWETIASIADLKGA — lower, -0.734
- HMAEWLLVQLTNGNWFYGEVIEKTDATIVLNTDILGKVSIQKLDIRRSISGPLTAAKRQEIEDSERAKD — lower, -1.65
- HMAFDDAHYKDMITSYLKKFKKGNRSEIENLIIPKLSEVLVEKQKKDKVKNLLQALRKDNQIRLKGKYWYL — higher, 0.422
- HMAFIEADIGKRIKSLRNKKRITLESLAAETGFTKGYLSKVETSEKAPPVSTLGSIARALGVSISTLLGE — lower, -1.31
- HMAFKDDDVQKAYDRYMDRYGELSVLYSDNGLKVDDDLFYKNNIPPNGKFTKEFFDELYELVNMEFINNY — lower, -0.173
- HMAFRLPNGYGTIRRLTGNRRKPYVALVNPTQVFDDEKGTSHYKYDLLGTFAEKIDAYNAVMQYHKSPGGL — lower, -1.13
- HMAGAPANLAARLREQILQGAYHDGQRLPAERHLAAEHGVSRGTVREALRLLEQGALLTRKRGSGSYVTYP — lower, -0.516
- HMAGDVVVEVVGKVRDPQVVTLPKGSRVQDALEAAGGVKPGVNTTDQNLARLLVDGEQIRIGLSS — within 0.2 log units, 0.107
- HMAGFGDSLEKMSDAVEALKLLMSTEDARNDQNIQKIARELKDVFNKYRTHLRKSYPDQYDRIKSTL — lower, -0.742
- HMAGGNHPTRLELLDSAAHIAERDGTSALTVDAITKSAGHAKGTFYIHFDDRADLLVEMHRR — lower, -0.247
- HMAGIPIHMSQLKQIILLLSQGYPIKGIARETGVSRNTIKGYLQTLTSQDLNVTDALKLENIQLEYLLRSP — lower, -1.97
- HMAGLYSLLLVELPMERLPEDLPAIKAAWLKTGDTEAFKVALQAMSSRGWTIAVPGKHRDTQMTQL — higher, 0.259
- HMAGPVLTPEEAEVLRILADHGEMTVDNISAEGKMSAAVVLRGLGVLSAYGLVAPGGPGRWRSE — lower, -0.806
- HMAGTDLSERESEIAMLLLKGYPYKLIASRLYISESTVKSHVQNIYGKLGIHSRTELIEQFSAS — lower, -0.649
- HMAGTPAIVKWFNPTKGFGFVTPKEAGSDALLHASVLAKRGKRWLQEGTLVEVLIEEGPKGLVVSELLTIE — lower, -0.84
- HMAGTRRFELVEGSSSKFWEVTVADGSYTVTYGRIGTAGGSKTTESATAEADAEKLVREKLKKGYQEAGAA — within 0.2 log units, 0.102
- HMAGTRVWSENGQLYVTAAVSGRANVYNVLGKLNRSLTFSAGETKSVSVPAGIYVVSLNNGKAYKVAV — lower, -3.28
- HMAGWIPVEERLPDDLTNPITRDAYVYPVTVDLGDVTDIRYYSFWRGHWYNQGPETMDDLVIAWMLLPEPY — lower, -0.279
- HMAHESYVKEQLLLSLTNHEDPIMQISLIEQLTKMHERNIIHELEKLTVDVQTNEEVKVQAYASLLILS — lower, -0.869
- HMAHKYYSIMRPVSIGTFPDNGTILGIVNFDTRQMVESIGKMAWGYINYGKPLTEKQISDYELVAE — lower, -1.4
- HMAHLNYQTVDINALIRHSLQLVSQDAQSRGIALQFTPRPELTTISADPDRLNQVLLNLYLNAMQD — lower, -0.607
- HMAHLSPNDAARLVGVSRPLLNQILDEGRITFFETAGGHRKIKLAAVLAYIKERDEVAAQLAAART — lower, -0.724
- HMAHSDEAWSVARRVARELDKILDGAGPRRTALVRAAAELRLSTRQIYNLLARYRADRTVTSLLPRR — lower, -0.27
- HMAHSWEAIRVKLQQIIDEEDKTKPLNDDQIKEKLAEAGIPNLARRTVAKYRKLLNIPTARFRKR — lower, -0.993
- HMAIDINKIYSEIKKKIPNQDNHIKEILSIIWRDFNNYQNIKSRSILINGEKSSPKKEIFNIIEDNINIPV — within 0.2 log units, 0.0633
- HMAIDPLLDKGYEQYDKGEFTEAVKSFNRAIEIDPKNAEAHFLRAMTYQGLALSKLAVADLEKAIV — within 0.2 log units, 0.0903
- HMAIGDYYINASALNVRSGEGTNYRIIGALPQGQKVQVISENSGWSKINYNGQTGYIGTRYLSKTPV — lower, -0.264
- HMAIHTSVTEHGEHDLTVRMEMEQVFAIEMAVVSHEQATMLERTFKANAEAIYQKLLGVMTQEYP — lower, -2.42
- HMAISEEEATNLALERVPGASAQDLRIQLEFDDGVQKYEGDIIYDGKEYDFEIDANTGTFLEWSE — within 0.2 log units, -0.0521

Source: the domain aggregation screens of Martell et al. (2025)
